From paper PMC8421139

Key:
Test in all cases: EMSA
[1] = biological target: GST-TDRD3 Tudor (UniProt Q9H7E2 555-615)
[2] = biological target: T1, GST-TDRD3 UBA (UniProt Q9H7E2 193-233)
T1 chain: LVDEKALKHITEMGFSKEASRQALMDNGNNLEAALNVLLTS

[3] = biological target: TDRD3 E691K (UniProt A0ACI8Q7A3 1-93+Q9H7E2:1-651, E598K;internal_change)

CCTCGCAAACTACTTAGATGTCATCCGCGAGC (ssDNA) [ssDNA probe (R-loop forward oligo)]
binding result [1]: no binding | binding result [2]: no binding | binding result [3]: binds
